# Measurements reported in the Immune Epitope Database (IEDB).
# What was measured:
# HLA-A*01:01 = assay: IEDB peptide-MHC binding, purified MHC/direct/fluorescence; filed as Kd, often an IC50 or EC50 that approximates it; ≥ and ≤ were set here for values at or beyond the usual limits of such assays; settings: source organism: Coxiella burnetii
# HLA-A*03:01 [1] = assay: as above; settings: source organism: Coxiella burnetii
# HLA-A*11:01 = assay: as above; settings: source organism: Coxiella burnetii
# HLA-A*26:01 = assay: as above; settings: source organism: Coxiella burnetii RSA 493
# HLA-A*26:02 = assay: as above; settings: source organism: Coxiella burnetii RSA 493
# HLA-A*31:01 = assay: as above; settings: source organism: Coxiella burnetii
# HLA-B*07:02 = assay: as above; settings: source organism: Coxiella burnetii
# HLA-B*08:01 = assay: as above; settings: source organism: Coxiella burnetii RSA 493
# HLA-B*08:02 = assay: as above; settings: source organism: Coxiella burnetii RSA 493
# HLA-B*15:01 = assay: as above; settings: source organism: Coxiella burnetii
# HLA-B*15:17 = assay: as above; settings: source organism: Coxiella burnetii
# HLA-B*18:01 = assay: as above; settings: source organism: Coxiella burnetii
# HLA-B*27:05 = assay: as above; settings: source organism: Coxiella burnetii
# HLA-B*40:01 = assay: as above; settings: source organism: Coxiella burnetii
# HLA-B*46:01 = assay: as above; settings: source organism: Coxiella burnetii
# HLA-B*48:01 = assay: as above; settings: source organism: Coxiella burnetii
# HLA-B*57:01 = assay: as above; settings: source organism: Coxiella burnetii
# HLA-B*58:01 = assay: as above; settings: source organism: Coxiella burnetii
# HLA-A*26:03 = assay: IEDB peptide-MHC binding, purified MHC/competitive/fluorescence; filed as Kd, often an IC50 or EC50 that approximates it; ≥ and ≤ were set here for values at or beyond the usual limits of such assays; settings: source organism: Coxiella burnetii Dugway 5J108-111
# HLA-A*68:02 = assay: as above; settings: source organism: Coxiella burnetii Dugway 5J108-111
# HLA-C*03:03 = assay: IEDB peptide-MHC binding, purified MHC/direct/fluorescence; filed as Kd, often an IC50 or EC50 that approximates it; ≥ and ≤ were set here for values at or beyond the usual limits of such assays; settings: source organism: Vibrio vulnificus YJ016
# HLA-A*03:01 [2] = assay: IEDB peptide-MHC binding, purified MHC/competitive/fluorescence; filed as Kd, often an IC50 or EC50 that approximates it; ≥ and ≤ were set here for values at or beyond the usual limits of such assays; settings: source organism: Vibrio vulnificus YJ016
# HLA-B*15:42 = assay: as above
# HLA-B*27:20 = assay: as above; settings: source organism: Vibrio vulnificus YJ016
# HLA-B*40:13 = assay: as above; settings: source organism: Vibrio vulnificus YJ016
# HLA-B*45:06 = assay: as above
# HLA-B*83:01 = assay: as above
# HLA-C*04:01 = assay: as above; settings: source organism: Vibrio vulnificus YJ016
# HLA-C*06:02 = assay: as above; settings: source organism: Vibrio vulnificus YJ016
# HLA-C*14:02 = assay: as above; settings: source organism: Vibrio vulnificus YJ016
# HLA-B*51:01 = assay: IEDB peptide-MHC binding, purified MHC/direct/fluorescence; filed as Kd, often an IC50 or EC50 that approximates it; ≥ and ≤ were set here for values at or beyond the usual limits of such assays; settings: source organism: Human alphaherpesvirus 1
# HLA-C*05:01 = assay: as above; settings: source organism: Human alphaherpesvirus 1
# HLA-A*32:15 = assay: IEDB peptide-MHC binding, purified MHC/competitive/fluorescence; filed as Kd, often an IC50 or EC50 that approximates it; ≥ and ≤ were set here for values at or beyond the usual limits of such assays; settings: source organism: Human alphaherpesvirus 1
# [3] = source organism: Vibrio vulnificus YJ016
# [4] = source organism: Human alphaherpesvirus 1
sequence,measurement,setting,value
IIGLLKIFR,Kd,HLA-A*01:01,≥ 20 µM
same,Kd,HLA-A*03:01 [1],0.407 µM
same,Kd,HLA-A*11:01,0.225 µM
same,Kd,HLA-A*26:01,≥ 20 µM
same,Kd,HLA-A*26:02,≥ 20 µM
same,Kd,HLA-A*31:01,0.0227 µM
same,Kd,HLA-B*07:02,≥ 20 µM
same,Kd,HLA-B*08:01,≥ 20 µM
same,Kd,HLA-B*08:02,≥ 20 µM
same,Kd,HLA-B*15:01,≥ 20 µM
same,Kd,HLA-B*15:17,≥ 20 µM
same,Kd,HLA-B*18:01,≥ 20 µM
same,Kd,HLA-B*27:05,≥ 20 µM
same,Kd,HLA-B*40:01,≥ 20 µM
same,Kd,HLA-B*46:01,≥ 20 µM
same,Kd,HLA-B*48:01,≥ 20 µM
same,Kd,HLA-B*57:01,≥ 20 µM
same,Kd,HLA-B*58:01,≥ 20 µM
same,Kd,HLA-A*26:03,≥ 20 µM
same,Kd,HLA-A*68:02,1.32 µM
KMFNRASYF,Kd,HLA-C*03:03,2.72 µM
same,Kd,HLA-A*03:01 [2],0.0048 µM
same,Kd,HLA-B*15:42; [3],≥ 5 µM
same,Kd,HLA-B*27:20,0.0012 µM
same,Kd,HLA-B*40:13,0.0024 µM
same,Kd,HLA-B*45:06; [3],≥ 5 µM
same,Kd,HLA-B*83:01; [3],≥ 5 µM
same,Kd,HLA-C*04:01,0.304 µM
same,Kd,HLA-C*06:02,0.068 µM
same,Kd,HLA-C*14:02,0.004 µM
MPYAAHDPI,Kd,HLA-B*51:01,0.364 µM
same,Kd,HLA-C*05:01,≥ 20 µM
same,Kd,HLA-A*32:15,0.136 µM
same,Kd,HLA-B*15:42; [4],≥ 5 µM
same,Kd,HLA-B*45:06; [4],≥ 5 µM
same,Kd,HLA-B*83:01; [4],0.172 µM
